Square brackets hold non-standard residues; d marks the D form. d2Nal = N[C@H](Cc1ccc2ccccc2c1)C(=O)O
Columns and labels:
[1] = target: hMC4R PRESTO-Tango plasmid construct, transiently expressed in HTLA cells (human, UniProt P32245 1-332); assay: cell-based or functional assay
[2] = target: T1, mMC4R-HaloTag fusion protein (mouse, UniProt P56450 1-332, HaloTag NanoBRET 618 ligand bound to the HaloTag); assay: NanoBRET in transiently transfected cells; basal signal with assay buffer set as 100%
T1 construct: whole, on cells; not shown: HaloTag on the C-terminus

[3] = target: human melanocortin-4 receptor (hMC4R), stably expressed in HEK293 cells (human, UniProt P32245 1-332); assay: cell-based or functional assay
human melanocortin-4 receptor (hMC4R), stably expressed in HEK293 cells, sequence (P32245 whole entry): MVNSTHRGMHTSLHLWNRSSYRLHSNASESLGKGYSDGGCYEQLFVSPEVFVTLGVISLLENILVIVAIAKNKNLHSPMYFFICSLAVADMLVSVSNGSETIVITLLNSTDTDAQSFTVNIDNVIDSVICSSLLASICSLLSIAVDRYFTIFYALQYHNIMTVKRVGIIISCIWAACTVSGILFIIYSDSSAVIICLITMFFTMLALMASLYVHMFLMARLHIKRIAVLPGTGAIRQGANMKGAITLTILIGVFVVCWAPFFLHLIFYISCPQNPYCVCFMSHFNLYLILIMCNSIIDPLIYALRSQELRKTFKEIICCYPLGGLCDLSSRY

hMC4R PRESTO-Tango plasmid construct, transiently expressed in HTLA cells, sequence (P32245 whole entry, the tested form may be a part): as the sequence (P32245 whole entry) above

## Ac-H[d2Nal]RW-NH2 [CJL-1-80, Ac-His-DNal(2')-Arg-Trp-NH2]
[1]
  β-arrestin recruitment, response at 10 µM relative to the maximal efficacy of NDP-MSH: 30%

B1: mMC4R-NanoLuc fusion protein (receptor, mouse, UniProt P56450 1-332, looked up)
chain: MNSTHHHGMYTSLHLWNRSSYGLHGNASESLGKGHPDGGCYEQLFVSPEVFVTLGVISLLENILVIVAIAKNKNLHSPMYFFICSLAVADMLVSVSNGSETIVITLLNSTDTDAQSFTVNIDNVIDSVICSSLLASICSLLSIAVDRYFTIFYALQYHNIMTVRRVGIIISCIWAACTVSGVLFIIYSDSSAVIICLISMFFTMLVLMASLYVHMFLMARLHIKRIAVLPGTGTIRQGTNMKGAITLTILIGVFVVCWAPFFLHLLFYISCPQNPYCVCFMSHFNLYLILIMCNAVIDPLIYALRSQELRKTFKEIICFYPLGGICELSSRY
notes: whole, on cells; not shown: NanoLuc on the C-terminus
[2]
  binding result: binds

B2: equal mixture of tetrapeptides CJL-1-14+CJL-1-80 (other)
peptide 1: Ac-H[dF]RW-NH2
peptide 2: Ac-H[d2Nal]RW-NH2
modifications: also: 1:1 mixture of two separate peptides
[3]
  cAMP signaling (AlphaScreen), EC50: 1.9 nM

— patent US20180360972A1 (REGENTS OF THE UNIVERSITY OF MINNESOTA, published 2018)
